Paper PMC3960984 (Nature structural & molecular biology, 2012)
No end group written: not given here.

Target: human LRH-1 LBD (residues 299-541), loaded with DLPC (human, UniProt O00482 299-541)
Test: fluorescence polarisation

Sequence of human LRH-1 LBD (residues 299-541), loaded with DLPC (O00482 299-541): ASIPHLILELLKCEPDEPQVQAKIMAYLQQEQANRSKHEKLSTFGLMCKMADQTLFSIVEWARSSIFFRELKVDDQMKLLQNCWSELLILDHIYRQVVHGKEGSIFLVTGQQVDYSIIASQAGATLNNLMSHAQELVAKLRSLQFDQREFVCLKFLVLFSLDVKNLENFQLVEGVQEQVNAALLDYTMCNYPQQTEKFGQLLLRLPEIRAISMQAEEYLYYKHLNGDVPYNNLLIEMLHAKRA

## SPSSHSSLTERHKILHRLLQEGSP (also: fluorescein label, position not given here) [fluorescein labeled peptide derived from SRC-1 NR Box 2]
  binding result: binds

## EEPSLLKKLLLAPA (also: fluorescein label, position not given here) [fluorescein labeled peptide derived from human PGC-1α NR Box 2]
  binding result: binds

## PVSPKKKENALLRYLLDKDDT (also: fluorescein label, position not given here) [fluorescein labeled peptide derived from TIF2 NR Box 3]
  binding result: binds
